Where a chain is given by its changes, count along the chain named.
T1: SHN-eIF4E (full length, WT) (Drosophila melanogaster, UniProt P48598-2 1-248)
T1 construct: eIF4E, Drosophila melanogaster; also called SHN-tagged eIF4E; SNH-tagged eIF4E; not shown: Strep-NusA-His (SHN), N-terminal, kept
T1 sequence (looked up): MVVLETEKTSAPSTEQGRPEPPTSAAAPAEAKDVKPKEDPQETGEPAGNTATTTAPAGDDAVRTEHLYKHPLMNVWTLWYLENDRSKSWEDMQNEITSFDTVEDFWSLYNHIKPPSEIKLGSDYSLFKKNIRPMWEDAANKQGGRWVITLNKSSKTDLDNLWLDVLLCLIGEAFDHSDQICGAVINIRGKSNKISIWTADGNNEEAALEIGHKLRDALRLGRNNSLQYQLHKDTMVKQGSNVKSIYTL

T2: eIF4E (residues 69–248), purified (Drosophila melanogaster, UniProt P48598-2 69-248)
T2 construct: eIF4E, Drosophila melanogaster, residues 69–248; the methods say the tag was cleaved with HRV3C; also called truncated eIF4E; eIF4E trunc; not shown: His6, N-terminal, cleaved
T2 sequence (looked up): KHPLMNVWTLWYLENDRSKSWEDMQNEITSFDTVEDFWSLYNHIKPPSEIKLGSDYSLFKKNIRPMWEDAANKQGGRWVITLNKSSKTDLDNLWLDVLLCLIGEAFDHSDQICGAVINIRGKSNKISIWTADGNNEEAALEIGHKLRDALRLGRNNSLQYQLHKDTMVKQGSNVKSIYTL

T3: eIF4E (residues 69–248) II-AA, purified (Drosophila melanogaster, UniProt P48598-2 69-248, Ile96 to Ala (II-AA) | Ile112 to Ala (II-AA))
T3 construct: eIF4E, Drosophila melanogaster, residues 69–248; also called eIF4E (II-AA); not shown: His6, N-terminal, cleaved
T3 sequence (looked up): T2 sequence (looked up) with I28A, I44A

B1: eIF4G peptide (residues 578–650) fused C-terminally to GB1 (domain or fragment, Drosophila melanogaster, UniProt O61380 578-650, looked up)
chain: PETTLNDKQDSTDLKVKVSAKISSIINYNEGQWSPNNPSGKKQYDREQLLQLREVKASRIQPEVKNVSILPQP
notes: eIF4G, Drosophila melanogaster, residues 578–650 (methods and legends); source: E. coli BL21 Star (DE3), purified (amylose, TEV cleavage, anion exchange, SEC); not shown: MBP, N-terminal, cleaved; GB1, C-terminal, kept
B2: CUP C+NC peptide fused C-terminally to GB1 (domain or fragment, Drosophila melanogaster)
chain: STGIHKPGSLRAPKAVRPTTAPVVSSKPVKSYTRSRLMDIRNGMFNALMHRSKESFVMPRIATCDDIELEGRLRRMNIWRTSDGTRFRTRSTTANLNMNNNNNNECMPAFFKNKNKPNLISDESIIQSQP
notes: CUP, Drosophila melanogaster, canonical and non-canonical 4E-BMs; source: E. coli BL21 Star (DE3), purified (amylose, HRV3C cleavage, SEC); not shown: MBP, N-terminal, cleaved; GB1, C-terminal, kept
B3: Thor: Dm Thor full length (1–117), Q9XZ56, ortholog of 4E-BP1–3 (protein)
chain: MSASPTARQAITQALPMITRKVVISDPIQMPEVYSSTPGGTLYSTTPGGTKLIYERAFMKNLRGSPLSQTPPSNVPSCLLRGTPRTPFRKCVPVPTELIKQTKSLKIEDQEQFQLDL
modifications: left off: GFP, end not stated, kept
B4: CUP N-terminal fragment: CUP residues 1–402 (protein, UniProt Q9VMA3 1-402, looked up, fragment)
chain: MQMAEAEQENGAGALKIATNAGATDRPAHQQLPLPVEDQQDEVLTPAEKGKFEYPPPPPPPTPVQAPLATKATALNASQEHDDDEANSEKWEDPCAPPPPPPLPTSAFLATGLGYLKLPAFKLKDALEKAITKLEANKRTLKASPESSRSIKNKNVVALEMLPRRSNPETIGDGSMLASTSTAVMLQTKKPAVIVEMERRCKIINLLAKQNQILESISGEAIPMHGPSKHLHEDEGLTLQVLSARASTPYTQPSSMLSCTAVSCDLEHDSPRKQVASKEAVPEQQSSQVQQKRPPSTGIHKPGSLRAPKAVRPTTAPVVSSKPVKSYTRSRLMDIRNGMFNALMHRSKESFVMPRIATCDDIELEGRLRRMNIWRTSDGTRFRTRSTTANLNMNNNNNNECM
modifications: HA tag

Tests used:
[1] = target: T1, SHN-eIF4E (full length, WT); test: pull-down; 'kinetic assay': 1 μM purified SHN-eIF4E–GST-eIF4G complex prebound to Strep-Tactin beads, challenged with 5 μM (CUP, 4E-T) or 10 μM (Thor, eIF4G) competitor for the indicated times; 4 °C; details: both partners purified
[2] = target: T2, eIF4E (residues 69–248), purified; test: ITC; VP-ITC, 20 °C; eIF4E (69–248, WT or mutant, 1–20 μM) in the cell, tenfold concentrated GB1-stabilized peptides titrated in; 20 mM Na-phosphate pH 7.0, 150 mM NaCl; one-site binding model; details: both partners purified
[3] = target: T3, eIF4E (residues 69–248) II-AA, purified; test: as above; details: both partners purified
[4] = system: endogenous eIF4E and HA-tagged 4E-BPs in S2 cells; test: Immunofluorescence localization in S2 cells; format: cell-based, Drosophila melanogaster
Protocol: S2 cells expressing HA-tagged versions of CUP, Thor and 4E-T or the indicated mutants were treated with Leptomycin B (100 nM; Sigma) or methanol as a control for 12 h. After the LMB treatment, the cells were allowed to adhere to poly-D-lysine–coated coverslips for 15 min and were fixed with 2% paraformaldehyde for 10 min. The cells were then permeabilized with 0.1% Triton X-100 in PBS (10 min) and stained with affinity-purified monoclonal anti-HA (Covance 1:1,000) and polyclonal anti-eIF4E (1:2,000) antibodies in PBS containing 1% BSA for 1 h. Alexa Fluor 594-labeled goat anti-rabbit and 488-labeled anti-mouse antibodies (Invitrogen) were used at dilutions of 1:1,000 and 1:2,000, respectively. The cells were mounted using Fluoromount-G (Southern Biotech). The images were acquired at room temperature using a confocal microscope (TCS SP2; Leica) that was fitted with a Plan-Apochromat × 100 NA 1.40 oil immersion objective and a series of three photomultipliers (Hamamatsu Photonics) controlled with the Leica confocal software (version 2.61). The images were prepared using Photoshop (Adobe). […]
Thor) independent experiments. […] Confocal fluorescent […]
micrographs of fixed S2 cells expressing HA-4E-T and GFP-Tral. The localization of HA-4E-T was determined by indirect immunofluorescence using an anti-HA antibody. The merged pictures show the HA signal in red and the GFP-Tral signal in green. Bar: 5 μm.

[5] = system: eIF4E II-AA (lateral surface mutant); test: Coimmunoprecipitation with HA-eIF4E II-AA in S2 cells; format: cell-based, Drosophila melanogaster; details: HA-eIF4E II-AA vs WT, western blot
Protocol: (§1) The coimmunoprecipitations assays were performed as previously described. For the pull downs using m^7GTP beads, 25 μl of immobilized γ-aminophenyl-m^7GTP (C10-spacer—Jena Bioscience) beads was added to the cell lysates and the mixtures were rotated for 1 h at 4 °C. The beads were washed three times with NET buffer (50 mM Tris (pH 7.4), 150 mM NaCl, 1 mM EDTA and 0.1% Triton X-100). The bound proteins were eluted with 2 × SDS–polyacrylamide gel electrophoresis (SDS–PAGE) sample buffer and analyzed by western blotting (WB). All of the WB experiments were developed with the ECL western blotting detection system (GE Healthcare) as recommended by the manufacturer. The antibodies used in this study are listed in Supplementary Table 2.

[6] = system: endogenous eIF4E; test: Coimmunoprecipitation / m7GTP pull-down with endogenous eIF4E in S2 cell lysates; format: cell-based, Drosophila melanogaster; details: western blot
Protocol: as §1
Thor and 4E-T) or HA-eIF4G and endogenous eIF4E in S2 cell lysates. The proteins were immunoprecipitated using a polyclonal anti-eIF4E antibody (α-4E). The pre-immune (Pre-I) serum and an HA-tagged version of MBP served as negative controls. The inputs (1%) and immunoprecipitates (10%) were analyzed by western blotting using anti-HA and anti-eIF4E antibodies. (b,c) The interaction of HA-tagged full length 4E-BPs (CUP, Thor and 4E-T) and eIF4G with endogenous eIF4E was analyzed by coimmunoprecipitation using anti-HA antibodies (b) or by pull-down using m7GTP-Sepharose beads (c). HA-MBP served as a negative control. The inputs (10%) and immunoprecipitates (30%) were analyzed by western blotting using anti-HA and anti-eIF4E antibodies. (d) Western blot showing the interaction of HA-Thor (full-length either wild-type or mutants) with endogenous eIF4E in S2 cells. The proteins were immunoprecipitated using anti-HA antibodies and analyzed as described in (b,c). (e) Western blot showing the interaction of HA-4E-T (residues 1–511, wild-type or mutants) with endogenous eIF4E. The proteins were immunoprecipitated using anti-HA antibodies and analyzed as described in (b,c). The size markers (kDa) are shown to the right of each panel. Mutants are described in Supplementary Table 1.

[7] = system: eIF4E II-AA mutant (full length); test: GST/MBP pull-down of full-length eIF4E II-AA mutant, coexpressed in E. coli; format: binding, Drosophila melanogaster; details: recombinant CUP (311–440), Thor (full length), 4E-T (1–58) or eIF4G (578–650), WT or mutant, SDS–PAGE
Protocol: For the pull-down assays shown in Fig. 3 and Supplementary Fig. 6a, the full-length His6- or SHN-tagged eIF4E (WT or II-AA mutant) was coexpressed with GST or MBP-tagged protein fragments, including CUP (residues 311–440), Thor (full length), 4E-T (residues 1–58) or eIF4G (residues 578–650) in E. coli BL21 (DE3) STAR cells in autoinducing medium[44] overnight at 20 °C. The cells were resuspended in lysis buffer (20 mM Tris–HCl (pH 7.5), 100 mM NaCl, 1 mM DTT) supplemented with EDTA-free protease inhibitor (Roche) and lysed by sonication. The cleared lysates were incubated for 1 h with 20 μl of Protino Glutathione Agarose 4B beads (Macherey-Nagel) or amylose resin (New England Biolabs). The beads were washed three times with lysis buffer, and the bound proteins were eluted with lysis buffer containing 25 mM L-glutathione or 25 mM maltose for 15 min. The proteins were analyzed by 10–15% SDS–PAGE followed by Coomassie blue staining.

[8] = system: firefly luciferase (F-Luc) reporter in S2 cells; test: Translation repression assay, F-Luc reporter in S2 cells; format: cell-based, Drosophila melanogaster; details: coexpression (HA-CUP 1–402 0.05–0.2 μg, HA-Thor 0.1–0.5 μg plasmid; mutants at highest), 3 days, F-Luc activity normalized to mRNA, three independent experiments
Protocol: S2 cells were transfected in 6-well plates using Effectene transfection reagent (Qiagen) according to the manufacturers protocol. The transfection mixtures contained: 0.1 μg of F-Luc reporter plasmid (F-Luc-V5), 0.3 μg of control RNA reporter, and increasing amounts of plasmids expressing HA-CUP (fragment 1–402; 0.05–0.2 μg) and HA-Thor (full length, 0.1–0.5 μg). The plasmids expressing the corresponding mutants or the HA peptide control were transfected at the highest concentration. In all the experiments, the cells were collected three days after transfection. The F-Luc activity was measured using the Dual-Luciferase reporter assay system (Promega). The northern blotting was performed as previously described. The F-Luc mRNA levels were determined by northern blotting and were normalized to those of the control RNA. The normalized F-Luc mRNA levels were then used to normalize the F-Luc activity, to obtain translation efficiencies.

Row | Molecule | time to 50% dissociation of prebound GST-eIF4G (tenfold molar excess of competitor) [1] [h] | Kd [2] [nM] | dH [2] [kcal/mol] | stoichiometry N [2] | Kd [3] [nM] | dH [3] [kcal/mol] | stoichiometry N [3] | time to 50% dissociation of prebound GST-eIF4G (fivefold molar excess of competitor) [1] [min] | half-life of the eIF4E–eIF4G complexes (tenfold molar excess of competitor) [1] [min] | nuclear accumulation of endogenous eIF4E upon LMB (in words) ([4]; S2 cells expressing 4E-BP or mutant, LMB 100 nM, 12 h) | localization of endogenous eIF4E (in words) ([4]; S2 cells overexpressing 4E-BP or mutant, −LMB) | nuclear accumulation of 4E-BP upon LMB (in words) ([4]; S2 cells, LMB 100 nM, 12 h) | localization of the 4E-BP (in words) ([4]; S2 cells, steady-state, −LMB) | association with eIF4E II-AA (in words) [5] | interaction with endogenous eIF4E (in words) [6] | binding to eIF4E II-AA mutant (in words) [7] | repression of F-Luc reporter expression (in words) [8]
1 | B1 | 4 | 17 | -18.5 ± 2 | 0.99 ± 0.08 | 40 | -16.24 ± 0.04 | 1.03 ± 0.01 | – | – | – | – | – | – | – | – | – | –
2 | B2 | – | 9.1 | -34.5 ± 0.35 | 1.05 ± 0.02 | 50 | -18.6 ± 0.7 | 0.98 ± 0.01 | 2.5 ± 0.5 | – | – | – | – | – | – | – | – | –
3 | RYSKVDLLALRYEGKSRQRPQCSTRLELQTLGFWKI (domain or fragment) [4E-T C+NC peptide fused C-terminally to GB1] | – | 5.6 | -22.8 ± 3 | 0.95 ± 0.01 | 8.8 | -12.9 ± 0.3 | 1.03 ± 0.04 | 22 | – | – | – | – | – | – | – | – | –
4 | TKLIYERAFMKNLRGSPLSQTPPSNVPSCLLRGT (domain or fragment) [Thor C+NC peptide fused C-terminally to GB1] | – | 1.4 | -16.8 ± 1 | 0.95 ± 0.02 | 470 | -7.6 ± 0.3 | 0.97 ± 0.01 | – | 37 ± 9 | – | – | – | – | – | – | – | –
5 | B3 | – | – | – | – | – | – | – | – | – | endogenous eIF4E accumulated in the nucleus | evenly distributed in the cytoplasm | partial nuclear accumulation | distributed evenly throughout the cytoplasm | disrupted the association | interacted with endogenous eIF4E | pulled down comparable amounts of WT and mutant eIF4E | inhibited the expression of the F-Luc reporter in a dose-dependent manner
6 | B4 | – | – | – | – | – | – | – | – | – | – | – | – | – | – | – | – | inhibited the expression of the F-Luc reporter in a dose-dependent manner

Reference: paper PMC4164784, “4E-BPs require non-canonical 4E-binding motifs and a lateral surface of eIF4E to repress translation” (Nature Communications, 2014)
